Results as given in patent US20130171152A1 (published 2013).
Positions count from the first letter of the chain named. Read-outs that look alike come from different tables or passages of the source.

B1: 4A5.37 (antibody, V domains shown)
VH: VKLEESGGGFVKPGGSLKISCAASGFTFRNYAMSWVRLSPEMRLEWVATISSAGGYIFYSDSVQGRFTISRDNAKNTLHLQMGSLRSGDTAMYYCARQGFGNYGDYYAMDYWGQGTTVTVSS
VL: DIELTQSPSSLAVSAGEKVTMSCKSSQSLLNSRTRKNQLAWYQQKTGQSPELLIYWASTRQSGVPDRFTGSGSGTDFTLTISSVQAEDLAVYYCQQSYNLLTFGPGTKLEIKR
B2: 4H11.2.5 (antibody, V domains shown)
VH: B1 VH with E4Q, I19V, R29S, N30S
VL: B1 VL with T46P, I111V

Key:
[1] = target: Homo sapiens MUC16 (GenBank NP-078966)
[2] = target: Homo sapiens MUC16 (GenBank NP-078966); remark: listed apart in the source

Binder | Kd [1] | Kd [2]
B1 | 7.3 nM | –
B2 | – | 6.8 nM
